Reference: publication PMC7280309 (Nature Communications, 2020)

T1: DotL with a C-terminal Strep-tag (Legionella pneumophila, UniProt Q5ZYC6 1-783)
T1 sequence: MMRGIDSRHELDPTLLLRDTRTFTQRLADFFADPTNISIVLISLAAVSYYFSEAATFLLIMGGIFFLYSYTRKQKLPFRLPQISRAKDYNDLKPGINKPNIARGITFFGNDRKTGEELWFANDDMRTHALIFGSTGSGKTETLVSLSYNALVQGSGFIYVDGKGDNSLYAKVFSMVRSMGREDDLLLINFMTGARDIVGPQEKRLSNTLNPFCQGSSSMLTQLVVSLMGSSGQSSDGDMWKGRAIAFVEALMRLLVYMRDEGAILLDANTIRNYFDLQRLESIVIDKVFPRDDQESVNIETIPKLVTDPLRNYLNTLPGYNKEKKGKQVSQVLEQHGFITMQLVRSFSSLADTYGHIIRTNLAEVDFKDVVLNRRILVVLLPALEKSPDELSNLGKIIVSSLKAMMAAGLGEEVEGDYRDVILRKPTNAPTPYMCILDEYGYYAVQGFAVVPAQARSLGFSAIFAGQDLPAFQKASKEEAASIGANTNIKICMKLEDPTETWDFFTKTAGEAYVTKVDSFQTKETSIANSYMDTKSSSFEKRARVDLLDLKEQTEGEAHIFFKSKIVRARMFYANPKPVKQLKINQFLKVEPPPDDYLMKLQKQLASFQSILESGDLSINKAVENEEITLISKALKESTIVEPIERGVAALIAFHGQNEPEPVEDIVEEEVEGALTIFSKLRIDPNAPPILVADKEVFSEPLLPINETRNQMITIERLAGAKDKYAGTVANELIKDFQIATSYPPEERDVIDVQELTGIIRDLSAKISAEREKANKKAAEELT

B1: DotN (natural protein)
chain: MNVNQTMADNQQRCELKLIASPGSWRLYSARKIDERFKSYEQKIFQRDRYTCQFCGFQARLYQDIVNLDGDYTNNRLSNLVTACCFCAQCFFVESVGVGGYGGGTLIYLPELTQAELNSLCHVLFCAITNDTGYKSSAQNIYRSFKFRSQIVEEKFGEGTSDPAIFGQLMIDSGVNSEEIREKLFKNIRLLPSRAKFRKQIEKWAASALEEIAD
B2: DotY (natural protein)
chain: MPKYTLPTRDALLKAMQVGETSIEAAEYMATRFEQILTKAKLLPECNDMLEKIKEYAQFVKFKLLSSAQVWSGQERPTSDYQNTQENKAEFLASHLEGLPSGLKLEVAIGDDAKILRGFSSNGKMVEGDQLKTMDGLLEGWLAKNSLAISGGAVVKIDNTGNQTKVDPQEIRQLINDSEKGVAKYFADKGVGMEVAQRTYQEPKALETKREEIRQEIESGAEAPTTQSIR
B3: DotZ (natural protein)
chain: MDEIKKDDELSQWLSTYGTITAERILGRYNISLPQDEILEAINIPSSFYRHLLQIPLKNVLNGIVIQQASDYHVYAQKLLIDYLLSGESSKEPDSQGAGTRESLEDERQRLVQLGDEFHKLELEQDNLIASSQASLMKISIDWNTKLETTLSKLNSLYKNTNSKIKKNAIRKALIKAFIHCDLVKDQSQKNKYQLIDKLNQTLAVSVGAELKESILTNLSELFQILEALNTKLDEFTDRTNHLSQQAKSFRTQFYEVILRIIELIKLLPEYKIDPAQDAINREPLYFDRTIGER

Columns and labels:
[1] = target: T1, DotL with a C-terminal Strep-tag; experiment: affinity purification with mass spectrometry; details: partners not purified
[2] = target: B3; experiment: cryo-EM structure; details: both partners purified
[3] = target: B2; experiment: cryo-EM structure; details: both partners purified

Row | Binder | binding result [1] | binding result [2] | binding result [3]
1 | B1 | binds | binds | binds
2 | B2 | – | binds | –
3 | B3 | binds | – | –
